Here are results for 6 molecules from US9273140B2, “Antibody for detecting DNA damage in cells utilizing cell membrane surface antigen Ly6D” (FUJITA HEALTH UNIVERSITY, priority 2012, dated 2016).

Assay [1] concerns LY6D expression on the surfaces of MCF10A cells. The assay can be described thus: LY6D expression in MCF10A cells incubated with DNA-damaging stressors, by FCM. Particulars: contact with DNA-damaging stressor (MMC 300 nM; hydroxyurea 2 mM), FIG. 4. In kind it is cell-based. The procedure: MCF10A cells were incubated with DNA-damaging stressor (MMC: 300 nM), carboplatin, hydroxyurea (2 mM), or aphidicolin and relative LY6D expression was determined by FCM.
After the growth to confluence, the cells were irradiated at 10Gy (3 mA/50 kV) in cabinet-type X-ray apparatus (SOFRON, soft X-ray inversion system). At a desired timing after irradiation, the cells were harvested.
The FCM analysis was carried out according to the method reported previously (Kurosawa et al., 2009, Immunol. Meth. 351: 1-12). Reactivity of the obtained anti-Ly6D antibodies was examined using the Ly6D expression cell line, namely A431™ (cell line human squamous carcinoma) (CML ATCC CCL-243). The A431 cells were recovered by centrifugation. The recovered cells were washed once with PBS and then suspended in FACS Buffer (PBS containing 1% BSA, 2 mM EDTA, and 0.1% NaN3) to result in 1×10^6 cells/mL. The cell suspension (100 μL) was dispensed on a 96-well V-bottomed plate (Costar 3897). The Ly6D antibodies were adjusted to a concentration of 0.02 to 2 μg/mL using FACS Buffer. The prepared antibody solution (100 μL) was added to the cells, followed by incubation at 4° C. for 1 hour. The cells were washed twice with FACS buffer. Then, 100 μL of ALEXAFLUOR-anti-human IgG™ (fluorescent antibody) (Invitrogen) diluted 750-fold with FACS Buffer was added to the cells, followed by another incubation at 4° C. for 1 hour. The cells were washed with FACS Buffer twice by centrifugation and set in HTS of FACS Calibur (BD) for measurement of FL1 fluorescence intensity of each well.
It is well known that X-ray irradiation causes damage to DNA, which results in DNA double-strand breaks. A variety of chemical reagents also cause DNA damage stress in cells. Therefore, the influence of camptothecin (CPT) on the LY6D expression in MCF10A cells was examined. […] Therefore, the induction of LY6D expression on the surfaces of MCF10A cells was confirmed to be a common phenomenon due to DNA damage stress.

A further assay relates to LY6D expression. To be noted: Rubinfeld et al., 2006; cited from earlier work.
The next assay addresses T1, LY6D (Homo sapiens, UniProt Q14210).
T1 construct: LY6D was identified by the precipitate derived from the X-ray-irradiated cells; endogenous in cells; host or cells: MCF10A cells (X-ray-irradiated and non-irradiated); FaDu cells
T1 sequence (Q14210 21-98 limits assumed): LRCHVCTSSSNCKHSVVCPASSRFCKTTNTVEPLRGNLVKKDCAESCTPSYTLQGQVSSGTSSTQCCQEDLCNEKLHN
The assay is described as follows: Immunoprecipitation, western blot and mass spectrometry to identify the antigen recognized by the antibody. The assay is classed as binding. Particulars: for 14 kDa band in western blot of immunoprecipitate: FIG. 2A. On the procedure: After biotinylation, the membrane proteins of the X-ray-irradiated MCF10A cells (right) and non-irradiated MCF10A cells (left) were solubilized and subjected to immunoprecipitation using the E33-139 monoclonal antibody, the product was separated by SDS-PAGE, and western blot was performed with HRP-conjugated streptavidin (A: western blot). MCF10A cells treated as described above were digested with PI-PLC, the resultant was centrifuged, and cell pellets (P) and the supernatant (S) subjected to PI-PLC treatment were separately immunoprecipitated (B: western blot). FaDu cells were treated with LY6D siRNA or control siRNA and analyzed by FCM using the E33-139 monoclonal antibody (black line: control siRNA and the E33-139 monoclonal antibody; dashed line: LY6D siRNA and the E33-139 monoclonal antibody; gray: control siRNA without the E33-139 monoclonal antibody (C: FCM). The experiment shown in FIG. 2B was carried out using FaDu cells (D: western blot). Solubilized FaDu cells were subjected to IP using the E33-139 monoclonal antibody and the product was separated by SDS-PAGE (left: western blot using anti-hLY6D Ab (polyclonal Ab, commercial product); right: silver stained gel) (E: western blot).
Conditions of immunoprecipitation were set as previously reported (Kurosawa et al., 2009, J. Immunol. Meth. 351: 1-12). […] The concentrate was analyzed by LC/MS.
Immunoprecipitation (IP) was performed to identify an antigen recognized by the E33-139 antibody. […] They were determined to be detected in precipitates in a nonspecific manner because they are abundant in the cytoplasm. […] Therefore, LY6D was determined to be a promising candidate as an antigen recognized by E33-139.
It has been reported that LY6D is abundantly expressed in a large amount in squamous cell carcinoma of head and neck (Quak et al., 1990, Am. J. Pathol. 136: 191-197). […] Before digestion with PI-PLC, a 14-kDa band was detected by the western blot method. […] The resulting blots were detected using a commercially available anti-human LY6D antibody. […]
For orientation: A western blot detects proteins with antibodies after separation by electrophoresis.

A further assay relates to MCF10A cells. The assay is described as follows: Selection of monoclonal antibodies by cell ELISA, FCM and confocal laser microscopy on X-ray-irradiated and non-irradiated cells. The assay is classed as binding. The procedure: X-ray-irradiated MCF10A cells (black bars) and non-irradiated MCF10A cells (gray bars) were subjected to ELISA using six monoclonal antibodies (A: cell ELISA). X-ray-irradiated cells (pink) and non-irradiated cells (green) were incubated with six monoclonal antibodies and subjected to FCM, and non-irradiated cells incubated with PBS were used as a negative control (purple) (B: FCM). X-ray-irradiated cells and non-irradiated cells were stained with the E33-139 monoclonal antibody (green) and DAPI (blue), respectively, and examined using a confocal laser microscope (C: immunofluorescence confocal laser microscopy).
X-ray-irradiated cells and non-irradiated cells were prepared, and antibodies specific to the irradiated cells were screened for by cell ELISA. That is, reactivity of antibody to both cells was examined by ELISA. A blocking solution (5% skim milk/0.05% NaN3/PBS) was added at 200 μL/well to both cells, followed by blocking at 37° C. for 2 hours. The blocking solution was removed and the cells were washed with PBS. The supernatant of the above antibody expression culture was added at 100 μL/well, followed by reaction at 37° C. for 1 hour. The resultant was washed five times with PBS. Rabbit anti-cp3 (1 μg/mL) diluted with PBS/0.05% Tween 20 was added at 100 μL/well, followed by reaction at 37° C. for 1 hour. The resultant was washed five times with PBS. Anti-Rabbit IgG (H+L)-HRP diluted 2000-fold with PBS/0.05% Tween 20 was further added at 100 μL/well, followed by reaction at 37° C. for 1 hour. The resultant was washed five times with PBS. […] Then, the absorbance at 492 nm was measured by SPECTRAmax340PC (Molecular Devices). Antibodies showing obvious positive reactivity specific to only the irradiated cells were selected and DNA sequences of the phages were analyzed. […]
The FCM analysis was carried out according to the method reported previously (Kurosawa et al., 2009, Immunol. Meth. 351: 1-12). […] The cells were washed with FACS Buffer twice by centrifugation and set in HTS of FACS Calibur (BD) for measurement of FL1 fluorescence intensity of each well. […]
On the technique in general: ELISA stands for enzyme-linked immunosorbent assay.

With `C[C@@]1(CO)[C@H](O)CC[C@@]2(C)[C@H]1CC[C@H]1C[C@@H]3C[C@@]12CC[C@]3(O)CO` [aphidicolin], in assay [1], the “LY6D expression on the surfaces of MCF10A cells” value (from here on “LY6D expression on the surfaces”) is given as “induced”.

For `N.N.O=C([O-])C1(C(=O)[O-])CCC1.[Pt+2]` [carboplatin], in assay [1], the “LY6D expression on the surfaces” value is “induced”.

As to `NC(=O)NO` [hydroxyurea], in assay [1], the “LY6D expression on the surfaces” value is “induced”.

For the molecule `CCc1c2c(nc3ccc(OC(=O)N4CCC(N5CCCCC5)CC4)cc13)-c1cc3c(c(=O)n1C2)COC(=O)[C@]3(O)CC` [irinotecan], the “LY6D expression after chemotherapy treatment” value with LY6D expression is “significantly enhanced”.

Regarding `CO[C@@]12[C@H](COC(N)=O)C3=C(C(=O)C(C)=C(N)C3=O)N1C[C@@H]1N[C@@H]12` [mitomycin C], the “LY6D expression on the surfaces” value in assay [1] was “induced”.

B1: E33-139: human phage antibody (scFv) against LY6D; sequence SEQ ID NOS: 1 and 2, CDRs SEQ ID NOS: 3 to 8 (protein)
scFv: MAEVQLVESGGGLVQPGRSLRLSCAASGFTFDDYAMHWVRQAPGKGLEWVSGISWNSGSIGYADSVKGRFTISRDNAKNSLYLQMNSLRAEDTALYYCAKTGILDAFDIWGQGTTVTVSRGGGGSGGGGSGGGGSMAQSVLTQPPSVSGAPRQTVTISCSGSSSNIGQNSVTWYQRLPGEAPKLLIYYDDLLHSGVSDRFSGSKSGTSASLAISGLQSEDEAEYYCASWDDSLKGPVFGGGTKLTVLGQPKAAPSVTLFPPSSEELQANKATLVCLISDFYPGAVTVAWKADSSPVKAGVETTTPSKQSNNKYAASSYLSLTPEQWKSHKSYSCQVTHEGSTVEKTVAPTECSAR
modifications: human
Regarding B1, the “antigen recognized by the antibody” value with LY6D (IP, MS, PI-PLC, siRNA and anti-human LY6D western blot) is given as “antigen protein 139 is LY6D”. For the same molecule, the entries for the “14 kDa band in western blot of immunoprecipitate” value with LY6D (samples from X-ray-irradiated MCF10A cells) and with LY6D (samples from non-irradiated MCF10A cells) were “a prominent band was observed” and “slightly observed”, respectively. In addition, the “reactivity to MCF10A cells after X-ray irradiation” value with MCF10A cells (X-ray-irradiated MCF10A cells (10Gy)) was “increased reactivity”. In addition, in the assay with MCF10A cells (X-ray-irradiated MCF10A cells, FIG. 1C), the “binding to molecules on the surfaces of X-ray-irradiated cells, confocal laser microscope analysis” value is “consistently and strongly binds”. The “reactivity to MCF10A cells before X-ray irradiation” value with MCF10A cells (non-irradiated MCF10A cells) is “no reactivity”.
